According to patent publication US10428140B2, “Anti-EphA4 antibody” (EISAI R&D MANAGEMENT CO., LTD., priority 2015, dated 2019):

Columns and labels:
Test in all cases: Selectivity ELISA of humanized antibodies for human Eph receptor
Type in all cases: binding
Details in all cases: coated protein 1 nM
human EphA3 = target: T1, human EphA3 (Homo sapiens, UniProt P29320)
T1 construct: a protein of the extracellular region of each human Eph receptor fused with the SEAP protein and the His tag; made in house; host or cells: Expi293F cells (culture supernatant)
T1 sequence (P29320 21-541 limits assumed): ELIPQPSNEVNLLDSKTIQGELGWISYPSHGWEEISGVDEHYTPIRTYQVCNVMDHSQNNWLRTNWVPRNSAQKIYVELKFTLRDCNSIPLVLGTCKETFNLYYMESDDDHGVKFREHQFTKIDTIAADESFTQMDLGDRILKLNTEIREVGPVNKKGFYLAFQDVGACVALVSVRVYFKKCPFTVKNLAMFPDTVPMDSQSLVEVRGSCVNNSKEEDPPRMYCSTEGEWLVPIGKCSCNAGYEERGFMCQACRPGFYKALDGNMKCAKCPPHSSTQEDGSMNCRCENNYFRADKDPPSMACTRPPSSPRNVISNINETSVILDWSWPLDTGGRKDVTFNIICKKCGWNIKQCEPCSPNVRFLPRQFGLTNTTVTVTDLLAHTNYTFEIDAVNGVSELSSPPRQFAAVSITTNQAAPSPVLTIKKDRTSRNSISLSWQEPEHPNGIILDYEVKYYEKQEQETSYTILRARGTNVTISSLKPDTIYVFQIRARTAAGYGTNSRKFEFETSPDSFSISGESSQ
In short: (§1)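 Human Eph ECD-SEAP-His fusions, harvested after 5 days of Expi293F expression, are captured on anti-His-coated wells (1 nM final). Bound humanized antibody is detected with HRP anti-IgG and TMB at 450 nm.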

human EphA8 = target: T2, human EphA8 (Homo sapiens, UniProt P29322)
T2 construct: a protein of the extracellular region of each human Eph receptor fused with the SEAP protein and the His tag; made in house; host or cells: Expi293F cells (culture supernatant)
T2 sequence (P29322 28-542 limits assumed): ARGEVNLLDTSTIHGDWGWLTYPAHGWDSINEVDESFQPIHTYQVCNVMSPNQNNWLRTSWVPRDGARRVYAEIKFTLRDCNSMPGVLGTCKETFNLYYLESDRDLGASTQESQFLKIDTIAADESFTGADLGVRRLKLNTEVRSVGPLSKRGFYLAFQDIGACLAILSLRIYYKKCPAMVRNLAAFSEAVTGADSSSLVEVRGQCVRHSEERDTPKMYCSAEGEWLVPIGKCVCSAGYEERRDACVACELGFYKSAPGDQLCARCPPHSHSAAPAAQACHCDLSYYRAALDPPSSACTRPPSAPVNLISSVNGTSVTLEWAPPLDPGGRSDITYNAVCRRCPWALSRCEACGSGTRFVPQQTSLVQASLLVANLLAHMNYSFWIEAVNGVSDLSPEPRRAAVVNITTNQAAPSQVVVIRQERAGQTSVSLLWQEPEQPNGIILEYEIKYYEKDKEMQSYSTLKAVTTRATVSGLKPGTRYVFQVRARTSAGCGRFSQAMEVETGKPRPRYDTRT
In short: as §1

human EphA7 = target: T3, human EphA7 (Homo sapiens, UniProt Q15375)
T3 construct: a protein of the extracellular region of each human Eph receptor fused with the SEAP protein and the His tag; made in house; host or cells: Expi293F cells (culture supernatant)
T3 sequence (Q15375 28-555 limits assumed): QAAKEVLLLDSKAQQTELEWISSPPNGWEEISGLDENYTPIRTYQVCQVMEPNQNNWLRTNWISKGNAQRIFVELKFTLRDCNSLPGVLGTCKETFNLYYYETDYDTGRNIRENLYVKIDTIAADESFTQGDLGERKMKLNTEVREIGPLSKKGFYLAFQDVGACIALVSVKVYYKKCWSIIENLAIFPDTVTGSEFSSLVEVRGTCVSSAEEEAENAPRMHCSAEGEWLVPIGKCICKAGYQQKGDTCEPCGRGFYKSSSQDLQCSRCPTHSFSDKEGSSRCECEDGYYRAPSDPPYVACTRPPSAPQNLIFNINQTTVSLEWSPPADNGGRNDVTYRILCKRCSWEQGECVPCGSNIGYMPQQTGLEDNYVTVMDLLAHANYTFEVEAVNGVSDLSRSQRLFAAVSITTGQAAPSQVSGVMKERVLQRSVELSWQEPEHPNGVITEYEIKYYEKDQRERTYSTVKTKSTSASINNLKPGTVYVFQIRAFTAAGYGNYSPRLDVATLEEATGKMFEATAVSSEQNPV
In short: as §1

B1: 69 (antibody, V domains shown)
VH: QIQLVQSGSELKKPGASVKVSCKASGYTFTDYSMHWVRQAPGQGLKWMGWINTETGEPTYADDFKGRFVFSLDTSVSTAYLQISSLKAEDTAVYYCARIPLYYYGSRYWYFDVWGQGTTVTVSS
VL: DIQMTQSPSSLSASVGDRVTITCRASENIYRNLAWYQQKPGKAPKLLVYAATNLADGVPSRFSGSGSGTDYTLTISSLQPEDFATYYCQHFWGTPWTFGQGTKVEIK
modifications: synthetic humanized antibody heavy chain variable region sequence; synthetic humanized antibody light chain variable region sequence
In the case of B1, the “hEphA3-SEAP-: absorbance at 450 nm, percentage with respect to hEphA4-SEAP-His as 100%” value (human EphA3) is reported as 5.4%, the “hEphA8-SEAP-: absorbance at 450 nm, percentage with respect to hEphA4-SEAP-His as 100%” value (human EphA8) is reported as 5.5% and the “hEphA7-SEAP-: absorbance at 450 nm, percentage with respect to hEphA4-SEAP-His as 100%” value (human EphA7) is reported as 5.3%.

B2: 82 (antibody, V domains shown)
VL: DIQMTQSPSSLSASVGDRVTITCRASENIYRNLAWYQQKPGKAPKLLLYAATNLADGVPSRFSGSGSGTDYTLTISSLQSEDFATYYCQHFWGTPWTFGQGTKVEIK
VH: QVQLVQSGSELKKPGASVKVSCKASGYTFTDYSMHWVRQAPGQGLKWMGWINTETGEPTYAQGFTGRFVFSLDTSVSTAYLQISSLKAEDTAVYYCARIPLYYYGSRYWYFDVWGQGTTVTVSS
modifications: constant regions without entry; synthetic humanized antibody light chain variable region sequence; synthetic humanized antibody heavy chain variable region sequence
B2 was tested, and the “hEphA3-SEAP-: absorbance at 450 nm, percentage with respect to hEphA4-SEAP-His as 100%” value (human EphA3) was 5.4%, the “hEphA8-SEAP-: absorbance at 450 nm, percentage with respect to hEphA4-SEAP-His as 100%” value (human EphA8) was 5.8% and the “hEphA7-SEAP-: absorbance at 450 nm, percentage with respect to hEphA4-SEAP-His as 100%” value (human EphA7) was 5.4%.

B3: 86 (antibody, V domains shown)
VL: DIQMTQSPSSLSASVGDRVTITCRASENIYRNLAWYQQKPGKAPKLLLYAATNLADGVPSRFSGSGSGTDYTLTISSLQSEDFATYYCQHFWGTPWTFGQGTKVEIK
VH: QIQLVQSGSELKKPGASVKVSCKASGYTFTDYSMHWVRQAPGQGLKWMGWINTETGEPTYADDFKGRFVFSLDTSVSTAYLQISSLKAEDTAVYYCARIPLYYYGSRYWYFDVWGQGTTVTVSS
modifications: constant regions without entry; synthetic humanized antibody light chain variable region sequence; synthetic humanized antibody heavy chain variable region sequence
B3 was tested, and the “hEphA3-SEAP-: absorbance at 450 nm, percentage with respect to hEphA4-SEAP-His as 100%” value (human EphA3) was 5.8%, the “hEphA8-SEAP-: absorbance at 450 nm, percentage with respect to hEphA4-SEAP-His as 100%” value (human EphA8) was 5.7% and the “hEphA7-SEAP-: absorbance at 450 nm, percentage with respect to hEphA4-SEAP-His as 100%” value (human EphA7) was 5.6%.

B4: 81 (antibody, V domains shown)
VL: DIQMTQSPSSLSASVGDRVTITCRASENIYRNLAWYQQKPGKAPKLLLYAATNLADGVPSRFSGSGSGTDYTLTISSLQSEDFATYYCQHFWGTPWTFGQGTKVEIK
VH: QVQLVQSGSELKKPGASVKVSCKASGYTFTDYSMHWVRQAPGQGLEWMGWINTETGEPTYAQGFTGRFVFSLDTSVSTAYLQISSLKAEDTAVYYCARIPLYYYGSRYWYFDVWGQGTTVTVSS
modifications: constant regions without entry; synthetic humanized antibody light chain variable region sequence; synthetic humanized antibody heavy chain variable region sequence
For B4, the “hEphA3-SEAP-: absorbance at 450 nm, percentage with respect to hEphA4-SEAP-His as 100%” value (human EphA3) was 5.0%, the “hEphA8-SEAP-: absorbance at 450 nm, percentage with respect to hEphA4-SEAP-His as 100%” value (human EphA8) was 5.2% and the “hEphA7-SEAP-: absorbance at 450 nm, percentage with respect to hEphA4-SEAP-His as 100%” value (human EphA7) was 5.2%.

B5: 87 (antibody, V domains shown)
VL: DIQMTQSPSSLSASVGDRVTITCRASENIYRNLAWYQQKPGKAPQLLLYAATNLADGVPSRFSGSGSGTDYTLTISSLQPEDFATYYCQHFWGTPWTFGQGTKVEIK
VH: QVQLVQSGSELKKPGASVKVSCKASGYTFTDYSMHWVRQAPGQGLEWMGWINTETGEPTYAQGFTGRFVFSLDTSVSTAYLQISSLKAEDTAVYYCARIPLYYYGSRYWYFDVWGQGTTVTVSS
modifications: constant regions without entry; synthetic humanized antibody light chain variable region sequence; synthetic humanized antibody heavy chain variable region sequence
For B5, the “hEphA3-SEAP-: absorbance at 450 nm, percentage with respect to hEphA4-SEAP-His as 100%” value (human EphA3) was 5.5%, the “hEphA8-SEAP-: absorbance at 450 nm, percentage with respect to hEphA4-SEAP-His as 100%” value (human EphA8) was 5.7% and the “hEphA7-SEAP-: absorbance at 450 nm, percentage with respect to hEphA4-SEAP-His as 100%” value (human EphA7) was 5.3%.

B6: 84 (antibody, V domains shown)
VL: DIQMTQSPSSLSASVGDRVTITCRASENIYRNLAWYQQKPGKAPKLLLYAATNLADGVPSRFSGSGSGTDYTLTISSLQSEDFATYYCQHFWGTPWTFGQGTKVEIK
VH: QVQLVQSGSELKKPGASVKVSCKASGYTFTDYSMHWVRQAPGQGLEWMGWINTETGEPTYADDFKGRFVFSLDTSVSTAYLQISSLKAEDTAVYYCARIPLYYYGSRYWYFDVWGQGTTVTVSS
modifications: constant regions without entry; synthetic humanized antibody light chain variable region sequence; synthetic humanized antibody heavy chain variable region sequence
With B6 the “hEphA3-SEAP-: absorbance at 450 nm, percentage with respect to hEphA4-SEAP-His as 100%” value (human EphA3) was 4.9%, the “hEphA8-SEAP-: absorbance at 450 nm, percentage with respect to hEphA4-SEAP-His as 100%” value (human EphA8) was 5.3% and the “hEphA7-SEAP-: absorbance at 450 nm, percentage with respect to hEphA4-SEAP-His as 100%” value (human EphA7) was 4.8%.

B7: 83 (antibody, V domains shown)
VL: DIQMTQSPSSLSASVGDRVTITCRASENIYRNLAWYQQKPGKAPKLLLYAATNLADGVPSRFSGSGSGTDYTLTISSLQSEDFATYYCQHFWGTPWTFGQGTKVEIK
VH: QIQLVQSGSELKKPGASVKVSCKASGYTFTDYSMHWVRQAPGQGLKWMGWINTETGEPTYAQGFTGRFVFSLDTSVSTAYLQISSLKAEDTAVYYCARIPLYYYGSRYWYFDVWGQGTTVTVSS
modifications: constant regions without entry; synthetic humanized antibody light chain variable region sequence; synthetic humanized antibody heavy chain variable region sequence
B7 was tested, and the “hEphA3-SEAP-: absorbance at 450 nm, percentage with respect to hEphA4-SEAP-His as 100%” value (human EphA3) was 5.7%, the “hEphA8-SEAP-: absorbance at 450 nm, percentage with respect to hEphA4-SEAP-His as 100%” value (human EphA8) was 6.0% and the “hEphA7-SEAP-: absorbance at 450 nm, percentage with respect to hEphA4-SEAP-His as 100%” value (human EphA7) was 5.5%.

B8: 85 (antibody, V domains shown)
VL: DIQMTQSPSSLSASVGDRVTITCRASENIYRNLAWYQQKPGKAPKLLLYAATNLADGVPSRFSGSGSGTDYTLTISSLQSEDFATYYCQHFWGTPWTFGQGTKVEIK
VH: QVQLVQSGSELKKPGASVKVSCKASGYTFTDYSMHWVRQAPGQGLKWMGWINTETGEPTYADDFKGRFVFSLDTSVSTAYLQISSLKAEDTAVYYCARIPLYYYGSRYWYFDVWGQGTTVTVSS
modifications: constant regions without entry; synthetic humanized antibody light chain variable region sequence; synthetic humanized antibody heavy chain variable region sequence
B8 was tested, and the “hEphA3-SEAP-: absorbance at 450 nm, percentage with respect to hEphA4-SEAP-His as 100%” value (human EphA3) was 5.1%, the “hEphA8-SEAP-: absorbance at 450 nm, percentage with respect to hEphA4-SEAP-His as 100%” value (human EphA8) was 5.5% and the “hEphA7-SEAP-: absorbance at 450 nm, percentage with respect to hEphA4-SEAP-His as 100%” value (human EphA7) was 4.8%.
